Reference: patent US20030040614

System: GsuI restriction endonuclease
Conditions: methylation of top strand; bottom strand 664; B+ buffer, 30 uM AdoMet, 37 C 3 h

“AGTTCTGGAGCATCGTTCACCGGTTACAAC / TGGTTGTAACCGGTAACGGATGCTCCAGAACTTCTC [duplex #1 GsuI site]” was tested, and the activity (3H radioactivity (units not stated)) was 13200.
